Test results reported in patent publication US20240191211A1, “BIOLUMINESCENCE-TRIGGERED PHOTOCATALYTIC LABELING” (Promega Corporation, priority 2022, published 2024).

Biological target: LgBiT-HaloTag
Test: luminescence saturation binding: VS-HiBiT titrated 200-0 nM against 0.2 nM fusion

LgBiT-HaloTag, sequence (chain, as listed by the source limits assumed): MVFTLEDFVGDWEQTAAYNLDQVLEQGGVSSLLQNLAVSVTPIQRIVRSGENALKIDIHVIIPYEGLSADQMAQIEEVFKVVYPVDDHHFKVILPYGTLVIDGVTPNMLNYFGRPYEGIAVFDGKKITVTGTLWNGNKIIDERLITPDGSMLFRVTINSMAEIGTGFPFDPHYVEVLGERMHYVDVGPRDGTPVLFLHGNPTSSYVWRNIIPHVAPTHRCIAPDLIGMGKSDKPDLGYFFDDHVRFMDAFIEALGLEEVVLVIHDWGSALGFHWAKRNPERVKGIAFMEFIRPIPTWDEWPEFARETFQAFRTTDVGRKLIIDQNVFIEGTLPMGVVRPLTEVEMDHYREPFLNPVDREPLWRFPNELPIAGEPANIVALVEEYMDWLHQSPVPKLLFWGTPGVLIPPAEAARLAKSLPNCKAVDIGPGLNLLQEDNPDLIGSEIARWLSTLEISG

B1: VS-HiBiT peptide (peptide)
peptide: VSGWRLFKKIS
modifications: not checked
  fold complementation affinity (against the VS-HiBiT/HaloTag-LgBiT configuration): 3 fold
